According to patent publication US20150164995A1 (Sanofi, published 2015):
Read-outs that look alike come from different tables or passages of the source. Square brackets hold non-standard residues; d marks the D form. Ends that are not written are not given here. Nle = CCCC[C@H](N)C(=O)O; Aib = CC(C)(N)C(=O)O

T1: human GIP receptor (human, UniProt P48546 22-466)
T1 sequence (looked up): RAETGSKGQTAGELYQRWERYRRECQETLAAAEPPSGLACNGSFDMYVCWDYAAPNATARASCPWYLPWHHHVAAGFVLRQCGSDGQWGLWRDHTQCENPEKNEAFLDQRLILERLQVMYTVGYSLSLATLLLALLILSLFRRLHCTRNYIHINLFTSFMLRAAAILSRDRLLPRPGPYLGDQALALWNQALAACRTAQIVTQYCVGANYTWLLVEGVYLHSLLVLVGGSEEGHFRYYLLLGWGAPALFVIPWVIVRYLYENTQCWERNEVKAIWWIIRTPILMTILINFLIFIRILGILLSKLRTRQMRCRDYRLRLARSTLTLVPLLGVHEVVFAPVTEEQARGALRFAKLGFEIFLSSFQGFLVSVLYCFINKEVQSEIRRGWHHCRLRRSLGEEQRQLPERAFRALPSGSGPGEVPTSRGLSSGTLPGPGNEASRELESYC


Tests used:
Assay in all cases: cell-based or functional assay
[1] = target: human glucagon receptor (human) (UniProt P47871)
[2] = target: human GLP-1 receptor (human) (UniProt P43220)
human glucagon receptor = human glucagon receptor (human, UniProt P47871 26-477)
human GLP-1 receptor [3] = target: T2, human GLP-1 receptor (human, UniProt P43220 24-463)
human GIP receptor [4] = target: T1, human GIP receptor
human GLP-1 receptor [5] = target: T2, human GLP-1 receptor; remark: listed apart in the source
Target sequence in this assay (P43220 24-463): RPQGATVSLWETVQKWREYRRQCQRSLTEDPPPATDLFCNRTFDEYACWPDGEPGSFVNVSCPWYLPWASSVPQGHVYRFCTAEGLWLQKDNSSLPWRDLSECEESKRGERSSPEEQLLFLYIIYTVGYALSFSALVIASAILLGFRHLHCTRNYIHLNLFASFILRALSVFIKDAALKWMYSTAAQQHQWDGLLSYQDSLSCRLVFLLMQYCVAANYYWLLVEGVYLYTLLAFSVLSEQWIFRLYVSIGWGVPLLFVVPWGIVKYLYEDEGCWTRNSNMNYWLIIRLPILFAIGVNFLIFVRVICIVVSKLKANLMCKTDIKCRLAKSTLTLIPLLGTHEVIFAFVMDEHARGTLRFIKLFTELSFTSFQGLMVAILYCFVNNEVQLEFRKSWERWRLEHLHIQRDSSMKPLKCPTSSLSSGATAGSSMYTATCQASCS

human GIP receptor [6] = target: T1, human GIP receptor; remark: listed apart in the source

Sequence of human glucagon receptor (P47871 26-477): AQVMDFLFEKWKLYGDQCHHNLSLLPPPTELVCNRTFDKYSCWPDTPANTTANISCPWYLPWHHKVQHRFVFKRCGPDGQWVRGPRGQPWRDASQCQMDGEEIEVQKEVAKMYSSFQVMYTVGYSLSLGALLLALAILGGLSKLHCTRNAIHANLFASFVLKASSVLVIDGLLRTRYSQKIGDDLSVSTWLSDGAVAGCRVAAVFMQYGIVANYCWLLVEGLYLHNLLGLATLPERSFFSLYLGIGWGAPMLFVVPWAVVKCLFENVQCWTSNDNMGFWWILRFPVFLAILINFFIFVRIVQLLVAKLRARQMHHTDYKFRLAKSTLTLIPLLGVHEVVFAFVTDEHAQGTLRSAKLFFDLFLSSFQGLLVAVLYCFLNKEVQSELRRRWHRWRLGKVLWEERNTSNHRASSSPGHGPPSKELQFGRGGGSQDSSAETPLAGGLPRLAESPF
Sequence of human GLP-1 receptor (human) (P43220 24-463): as the sequence (P43220 24-463) above
Sequence of human glucagon receptor (human) (P47871 26-477): as the sequence (P47871 26-477) above

Molecule	EC50 hGlucagon R [pM] (cAMP formation, HTRF, HEK-293 cells) [1]	EC50 hGLP-1 R [pM] (cAMP formation, HTRF, HEK-293 cells) [2]	EC50 hGLUC R [pM] (cAMP formation, HTRF, HEK-293 cells) (human glucagon receptor)	EC50 hGLP-1 R [pM] (cAMP formation, HTRF, HEK-293 cells) (human GLP-1 receptor [3])	EC50 hGlP R [pM] (cAMP formation, HTRF, HEK-293 cells) (human GIP receptor [4])	EC50 hGLP-1 R [pM] (cAMP formation, HTRF, HEK-293 cells) (human GLP-1 receptor [5])	EC50 hGlP R [pM] (cAMP formation, HTRF, HEK-293 cells) (human GIP receptor [6])
exendin-4 (peptide)	> 1e+07	0.4	–	–	–	–	–
Y[Aib]EGTFTSDLSIQMEKRAA[Aib]EFIEWLKAGGPSSGAPPPS-NH2 [SEQ ID NO: 8]	–	–	> 1e+06	1.5	14.4	–	–
Y[Aib]EGTFTSDLSIQLEKRAA[Aib]EFIEWLKAGGPSSGAPPPS-NH2 (N-terminus assumed; SMILES CC[C@H](C)[C@H](NC(=O)[C@H](CO)NC(=O)[C@H](CC(C)C)NC(=O)[C@H](CC(=O)O)NC(=O)[C@H](CO)NC(=O)[C@@H](NC(=O)[C@H](Cc1ccccc1)NC(=O)[C@@H](NC(=O)CNC(=O)[C@H](CCC(=O)O)NC(=O)C(C)(C)NC(=O)[C@@H](N)Cc1ccc(O)cc1)[C@@H](C)O)[C@@H](C)O)C(=O)N[C@@H](CCC(N)=O)C(=O)N[C@@H](CC(C)C)C(=O)N[C@@H](CCC(=O)O)C(=O)N[C@@H](CCCCN)C(=O)N[C@@H](CCCNC(=N)N)C(=O)N[C@@H](C)C(=O)N[C@@H](C)C(=O)NC(C)(C)C(=O)N[C@@H](CCC(=O)O)C(=O)N[C@@H](Cc1ccccc1)C(=O)N[C@H](C(=O)N[C@@H](CCC(=O)O)C(=O)N[C@@H](Cc1c[nH]c2ccccc12)C(=O)N[C@@H](CC(C)C)C(=O)N[C@@H](CCCCN)C(=O)N[C@@H](C)C(=O)NCC(=O)NCC(=O)N1CCC[C@H]1C(=O)N[C@@H](CO)C(=O)N[C@@H](CO)C(=O)NCC(=O)N[C@@H](C)C(=O)N1CCC[C@H]1C(=O)N1CCC[C@H]1C(=O)N1CCC[C@H]1C(=O)N[C@@H](CO)C(N)=O)[C@@H](C)CC) [SEQ ID NO: 9]	–	–	155000	1.2	7.9	–	–
Y[Aib]EGTFTSDLSIQ[Nle]EKRAA[Aib]EFIEWLKAGGPSSGAPPPS-NH2 (N-terminus assumed; SMILES CCCC[C@H](NC(=O)[C@H](CCC(N)=O)NC(=O)[C@@H](NC(=O)[C@H](CO)NC(=O)[C@H](CC(C)C)NC(=O)[C@H](CC(=O)O)NC(=O)[C@H](CO)NC(=O)[C@@H](NC(=O)[C@H](Cc1ccccc1)NC(=O)[C@@H](NC(=O)CNC(=O)[C@H](CCC(=O)O)NC(=O)C(C)(C)NC(=O)[C@@H](N)Cc1ccc(O)cc1)[C@@H](C)O)[C@@H](C)O)[C@@H](C)CC)C(=O)N[C@@H](CCC(=O)O)C(=O)N[C@@H](CCCCN)C(=O)N[C@@H](CCCNC(=N)N)C(=O)N[C@@H](C)C(=O)N[C@@H](C)C(=O)NC(C)(C)C(=O)N[C@@H](CCC(=O)O)C(=O)N[C@@H](Cc1ccccc1)C(=O)N[C@H](C(=O)N[C@@H](CCC(=O)O)C(=O)N[C@@H](Cc1c[nH]c2ccccc12)C(=O)N[C@@H](CC(C)C)C(=O)N[C@@H](CCCCN)C(=O)N[C@@H](C)C(=O)NCC(=O)NCC(=O)N1CCC[C@H]1C(=O)N[C@@H](CO)C(=O)N[C@@H](CO)C(=O)NCC(=O)N[C@@H](C)C(=O)N1CCC[C@H]1C(=O)N1CCC[C@H]1C(=O)N1CCC[C@H]1C(=O)N[C@@H](CO)C(N)=O)[C@@H](C)CC) [SEQ ID NO: 10]	–	–	193000	1.4	12.4	–	–
Y[Aib]EGTFTSDLSIQLEKRAA[Aib]EFIEWLKAGGPSSGAPPPSK-NH2 (N-terminus assumed; SMILES CC[C@H](C)[C@H](NC(=O)[C@H](CO)NC(=O)[C@H](CC(C)C)NC(=O)[C@H](CC(=O)O)NC(=O)[C@H](CO)NC(=O)[C@@H](NC(=O)[C@H](Cc1ccccc1)NC(=O)[C@@H](NC(=O)CNC(=O)[C@H](CCC(=O)O)NC(=O)C(C)(C)NC(=O)[C@@H](N)Cc1ccc(O)cc1)[C@@H](C)O)[C@@H](C)O)C(=O)N[C@@H](CCC(N)=O)C(=O)N[C@@H](CC(C)C)C(=O)N[C@@H](CCC(=O)O)C(=O)N[C@@H](CCCCN)C(=O)N[C@@H](CCCNC(=N)N)C(=O)N[C@@H](C)C(=O)N[C@@H](C)C(=O)NC(C)(C)C(=O)N[C@@H](CCC(=O)O)C(=O)N[C@@H](Cc1ccccc1)C(=O)N[C@H](C(=O)N[C@@H](CCC(=O)O)C(=O)N[C@@H](Cc1c[nH]c2ccccc12)C(=O)N[C@@H](CC(C)C)C(=O)N[C@@H](CCCCN)C(=O)N[C@@H](C)C(=O)NCC(=O)NCC(=O)N1CCC[C@H]1C(=O)N[C@@H](CO)C(=O)N[C@@H](CO)C(=O)NCC(=O)N[C@@H](C)C(=O)N1CCC[C@H]1C(=O)N1CCC[C@H]1C(=O)N1CCC[C@H]1C(=O)N[C@@H](CO)C(=O)N[C@@H](CCCCN)C(N)=O)[C@@H](C)CC) [SEQ ID NO: 11]	–	–	129000	1.6	14.1	–	–
Y[Aib]EGTFTSDLSIQLDKRAA[Aib]EFIEWLKAGGPSSGAPPPS-NH2 (N-terminus assumed; SMILES CC[C@H](C)[C@H](NC(=O)[C@H](CO)NC(=O)[C@H](CC(C)C)NC(=O)[C@H](CC(=O)O)NC(=O)[C@H](CO)NC(=O)[C@@H](NC(=O)[C@H](Cc1ccccc1)NC(=O)[C@@H](NC(=O)CNC(=O)[C@H](CCC(=O)O)NC(=O)C(C)(C)NC(=O)[C@@H](N)Cc1ccc(O)cc1)[C@@H](C)O)[C@@H](C)O)C(=O)N[C@@H](CCC(N)=O)C(=O)N[C@@H](CC(C)C)C(=O)N[C@@H](CC(=O)O)C(=O)N[C@@H](CCCCN)C(=O)N[C@@H](CCCNC(=N)N)C(=O)N[C@@H](C)C(=O)N[C@@H](C)C(=O)NC(C)(C)C(=O)N[C@@H](CCC(=O)O)C(=O)N[C@@H](Cc1ccccc1)C(=O)N[C@H](C(=O)N[C@@H](CCC(=O)O)C(=O)N[C@@H](Cc1c[nH]c2ccccc12)C(=O)N[C@@H](CC(C)C)C(=O)N[C@@H](CCCCN)C(=O)N[C@@H](C)C(=O)NCC(=O)NCC(=O)N1CCC[C@H]1C(=O)N[C@@H](CO)C(=O)N[C@@H](CO)C(=O)NCC(=O)N[C@@H](C)C(=O)N1CCC[C@H]1C(=O)N1CCC[C@H]1C(=O)N1CCC[C@H]1C(=O)N[C@@H](CO)C(N)=O)[C@@H](C)CC) [SEQ ID NO: 12]	–	–	17900	2.6	17.9	–	–
YAEGTFTSDVSIYLEGQAAKEFIAWLVKGR (ends and bridges not checked) [Tyr(1)Ile(12)-GLP1]	–	–	–	–	–	5	3660
